From patent publication US8298782B2, “Reversible MHC multimer staining for functional purification of antigen-specific T cells” (priority 2000, dated 2012) come the findings set out here.

The experiment relates to LLO91-99-specific T cells. As to the kind of experiment: epitope-tag (HSV) staining for surface-bound MHC / dissociation experiments by flow cytometry. The class given is cell-based. Here is the method: FIG. 5: Development of a reversible MHC multimer staining technology. (a) LLO91-99-specific T cells were stained for 30 min with monomeric or tetrameric (“tet”) LLO91-99/H2-K^d/β2m-HSV-tag or p60217-225/H2-K^d/β2m-HSV-tag reagents. Cells were fixed without washing (upper histogram) or after 2 washing steps (lower histogram) with 1% paraformaldehyde and subsequently stained for remaining HSV-epitope-tag on the cell surface (x-axis). (b+c) LLO91-99-specific T cells were stained for 45 min with LLO91-99/H2-K^dStrep-tag® II peptide/β2-HSV-tag:Strep:Tactin® polypeptide polymers (IBA GmbH) (“poly”), briefly washed to remove unbound reagents, and incubated in the presence (b) or absence (c) of 1 mM d-biotin; all steps were performed at 4° C. Cell aliquots were harvested after different time intervals (indicated above histograms), fixed with 1% paraformaldehyde, and stained for remaining HSV-epitope-tag on the cell surface (x-axis).
FIG. 6: Improvement of MHC-Strep-tag® II peptide/Strep-Tactin® polypeptide (IBA GmbH) multimer reagents. […]
FIG. 7: Reversible MHC multimer staining and T cell function. […] (a) Staining for recombinant MHC-molecules (detected by epitope-tag staining, x-axis) on differently treated T cells. […] Numbers of viable bacteria (y-axis) were determined 48 h following Lysteria infection. […]
A general note: Flow cytometry measures light scatter and fluorescence of single cells or particles in a stream.

B1: monomeric MHC/epitope molecules: monomeric LLO91-99/H2-K^d/β2m-HSV-tag reagent (protein)
MHC heavy: GPHSLRYFVTAVSRPGLGEPRFIAVGYVDDTQFVRFDSDADNPRFEPRAPWMEQEGPEYWEEQTQRAKSDEQWFRVSLRTAQRYYNQSKGGSHTFQRMFGCDVGSDWRLLRGYQQFAYDGRDYIALNEDLKTWTAADTAALITRRKWEQAGDAEYYRAYLEGECVEWLRRYLELGNETLLRTDSPKAHVTYHPRSQVDVTLRCWALGFYPADITLTWQLNGEDLTQDMELVETRPAGDGTFQKWAAVVVPLGKEQNYTCHVHHKGLPEPLTLRWKLPPSTVSNT
b2m: IQKTPQIQVYSRHPPENGKPNILNCYVTQFHPPHIEIQMLKNGKKIPKVEMSDMSFSKDWSFYILAHTEFTPTETDTYACRVKHASMAEPKTVYWDRDM
peptide: GYKDGNEYI
modifications: left off: a dimerising Fc or GST; small tags and cut ends
notes: monomeric LLO91-99/H2-K^d/β2m-HSV-tag reagent
In the case of B1, the “MHC monomers on the cell surface” value (after brief washing, 4° C.) is on record as “all reagent-derived MHC monomers disappear from the cell surface”. The “interaction of MHC monomers with T cell surface” value (fixed immediately with paraformaldehyde, no washing) was “some detectable interaction”.
